Experimental data as given in patent US20110008436A1 (published 2011).
Where no end group is shown, it is not given here.

Columns and labels:
[1] = target: T1, Substantially sericin-depleted silk fibroin from Bombyx mori (dissolved in 9.3 M LiBr, dialysed, then gelled … (Bombyx mori, UniProt P05790 22-5263; P21828 17-262, limits assumed); assay: Inferred by the filing from the HPLC ratios of the precipitates
T1 construct: also called silk molecule; depolymerized silk fibroin
Procedure: (§1) The amount of 23RGD bound to silk precipitates was quantified by analyzing lyophilized samples. The 23RGD was removed by incubating the samples for 4 hours in a dissolving buffer, then centrifuging on an Eppendorf 5415C (Eppendorf North America Inc., Westbury, N.Y.) at 16,000 g (RCF) for 30 minutes and the supernatant collected. This supernatant was then centrifuged in identical fashion and the final supernatant collected for HPLC analysis using a PerkinElmer Series 200 (PerkinElmer, Waltham, Mass.). The 23RGD peak areas from each curve were compared against a standard curve. 1-Way ANOVA was used to test for significant differences caused by changing silk concentration, 23RGD concentration, and accelerant volume. A Student's t-test was used to test the significance of differences resulting from altered ethanol concentrations.

[2] = target: T1, Substantially sericin-depleted silk …; assay: HPLC of 23RGD extracted from lyophilised silk precipitate; AVLO formulation (low accelerant volume, calculated ratio 2.5)
Procedure: as §1

[3] = target: T1, Substantially sericin-depleted silk …; assay: HPLC of 23RGD extracted from lyophilised silk precipitate; SCVLO formulation (very low silk concentration, calculated ratio 10.0)
Procedure: as §1

[4] = target: T1, Substantially sericin-depleted silk …; assay: HPLC of 23RGD extracted from silk precipitate, against the calculated ratio
Procedure: as §1

[5] = target: T1, Substantially sericin-depleted silk …; assay: HPLC of 23RGD extracted from lyophilised silk precipitate; BASE formulation (calculated ratio 5.0)
Procedure: as §1

[6] = target: T1, Substantially sericin-depleted silk …; assay: HPLC of 23RGD extracted with dissolving buffer from the rinsed 23RGD-enhanced silk gel, against a 23RGD standard curve
Excerpt: 23RGD-infused gels were studied to quantify the amount of 23RGD bound to the silk-hydrogel device as well as the quantity of free 23RGD which might be rinsed free of the device under relevant conditions. Briefly, samples of 23RGD-infused gel were cast and rinsed according to the methods above, with samples of rinse buffer being collected from each rinse for subsequent analysis by HPLC. Additionally, subsequent to the last rinse, the gel samples were mechanically pulverized by means of a stainless steel stirring rod and the adsorbed 23RGD removed by incubation for 4 hours in a dissolving buffer. This mixture of gel and solvent was then centrifuged on an Eppendorf 5415C at 16,000 g RCF for 30 minutes. The supernatant was collected and centrifuged another 30 minutes at 16,000 g RCF after which time the supernatant was collected in a sample vial for HPLC analysis. Samples of rinse buffer from the first and last rinse were centrifuged in the same fashion after being diluted with the same solvent the gel was extracted with in a volumetric ratio of 1 part rinse buffer to 4 parts solvent. To ensure 23RGD-hydrogel device rinse-exposed surface area was not a limiting factor, the same rinse and extraction process was performed upon devices pulverized after gelation and before rinsing.

[7] = target: T1, Substantially sericin-depleted silk …; assay: HPLC of 23RGD extracted from lyophilised silk precipitate; AVHI formulation (high accelerant volume, calculated ratio 10.0)
Procedure: as §1

[8] = target: T1, Substantially sericin-depleted silk …; assay: HPLC of 23RGD extracted from lyophilised silk precipitate; formulation labelled 0.6S 3R 10:1 (2.45 mg/mL 23RGD in 90% ethanol)
Procedure: as §1

[9] = target: T1, Substantially sericin-depleted silk …; assay: HPLC of 23RGD extracted from lyophilised silk precipitate; RHI formulation (high 23RGD, calculated ratio 10.0)
Procedure: as §1

[10] = target: T1, Substantially sericin-depleted silk …; assay: HPLC of 23RGD extracted from lyophilised silk precipitate; SCLO formulation (low silk concentration, calculated ratio 6.7)
Procedure: as §1

[11] = target: T1, Substantially sericin-depleted silk …; assay: HPLC of 23RGD extracted from lyophilised silk precipitate; group called RLO in this sentence (0.49 mg/mL 23RGD per paragraph 318, which is RVLO in Table 10)
Procedure: as §1

[12] = target: T1, Substantially sericin-depleted silk …; assay: HPLC of 23RGD extracted from lyophilised silk precipitate; group called RMED (1.47 mg/mL 23RGD per paragraph 318, which is RLO in Table 10)
Procedure: as §1

[13] = target: T1, Substantially sericin-depleted silk …; assay: HPLC of 23RGD extracted from silk precipitate; ECLO formulation (80% ethanol accelerant), against the calculated ratio
Procedure: as §1

B1: 23RGD peptide (amphiphilic peptide GRGDIPASSKG4SRL6R-NH2) (peptide)
peptide: GRGDIPASSKGGGGSRLLLLLLR-NH2
notes: also called 23RDG
- apparent saturation, 23RGD:silk ratio [1]: ~10 mol 23RGD per mol silk
- 23RGD:silk molar ratio bound [2]: 5.2 mol 23RGD per mol silk
- 23RGD:silk molar ratio bound [3]: 11 mol 23RGD per mol silk
- fold of the expected (calculated) bound 23RGD [4]: ~2 fold
- 23RGD:silk molar ratio bound [5]: 8.7 mol 23RGD per mol silk
- 23RGD:silk molar ratio bound [6]: 3.35 mol 23RGD per mol silk
- 23RGD:silk molar ratio bound [7]: 10.5 mol 23RGD per mol silk
- 23RGD:silk molar ratio bound [8]: ~10 mol 23RGD per mol silk
- 23RGD:silk molar ratio bound [9]: 10.7 mol 23RGD per mol silk
- 23RGD:silk molar ratio bound [10]: 9.9 mol 23RGD per mol silk
- 23RGD:silk molar ratio bound [11]: 1.1 mol 23RGD per mol silk
- 23RGD:silk molar ratio bound [12]: 6.95 mol 23RGD per mol silk
- fold of the expected (calculated) bound 23RGD [13]: ~1.5 fold
